Data on 1 molecule can be found in publication PMC6959235, “A mosquito salivary protein promotes flavivirus transmission by activation of autophagy” (Nature Communications, 2020).

This assay concerns the target recombinant LRPPRC protein purified from 293F cells (human, UniProt P42704 60-1394). Put plainly: ELISA. Conditions: both partners purified.

B1: Aedes aegypti venom allergen-1 (AaVA-1), recombinant, from Drosophila S2 cells (natural protein)
chain: NYCDQSLCRRGPHVACNAPTQFGSACGQEPKFVKMDARMKNLLLKKHNELRAEIACGKHGFPQAARMPTLVWDDELAHIASFNARKCIFAHDKCRNTREFKFAGQNLAITAFAGYNFQAADRAENFTQEWFNEHKDCPKSYVDSYPMSHSGPQIGHFTQMVNDRAWKMGCSMVHYKNGRVIKYYLVCNYSMTNMIEEPIYTRGSAGSKCQTGQNPQYRGLCSPREKVRSESYRG
notes: also called AAEL000793; purified AaVA-1
On to B1, for which the binding result is “binds”.
